Laboratory results as given in paper PMC8167298, “Structural Investigations of Human A2M Identify a Hollow Native Conformation That Underlies Its Distinctive Protease-Trapping Mechanism” (Molecular & Cellular Proteomics : MCP, 2021).

B1: Human α2-macroglobulin (A2M), native conformation, plasma-purified (natural protein, UniProt P01023 24-1474, looked up)
chain: SVSGKPQYMVLVPSLLHTETTEKGCVLLSYLNETVTVSASLESVRGNRSLFTDLEAENDVLHCVAFAVPKSSSNEEVMFLTVQVKGPTQEFKKRTTVMVKNEDSLVFVQTDKSIYKPGQTVKFRVVSMDENFHPLNELIPLVYIQDPKGNRIAQWQSFQLEGGLKQFSFPLSSEPFQGSYKVVVQKKSGGRTEHPFTVEEFVLPKFEVQVTVPKIITILEEEMNVSVCGLYTYGKPVPGHVTVSICRKYSDASDCHGEDSQAFCEKFSGQLNSHGCFYQQVKTKVFQLKRKEYEMKLHTEAQIQEEGTVVELTGRQSSEITRTITKLSFVKVDSHFRQGIPFFGQVRLVDGKGVPIPNKVIFIRGNEANYYSNATTDEHGLVQFSINTTNVMGTSLTVRVNYKDRSPCYGYQWVSEEHEEAHHTAYLVFSPSKSFVHLEPMSHELPCGHTQTVQAHYILNGGTLLGLKKLSFYYLIMAKGGIVRTGTHGLLVKQEDMKGHFSISIPVKSDIAPVARLLIYAVLPTGDVIGDSAKYDVENCLANKVDLSFSPSQSLPASHAHLRVTAAPQSVCALRAVDQSVLLMKPDAELSASSVYNLLPEKDLTGFPGPLNDQDNEDCINRHNVYINGITYTPVSSTNEKDMYSFLEDMGLKAFTNSKIRKPKMCPQLQQYEMHGPEGLRVGFYESDVMGRGHARLVHVEEPHTETVRKYFPETWIWDLVVVNSAGVAEVGVTVPDTITEWKAGAFCLSEDAGLGISSTASLRAFQPFFVELTMPYSVIRGEAFTLKATVLNYLPKCIRVSVQLEASPAFLAVPVEKEQAPHCICANGRQTVSWAVTPKSLGNVNFTVSAEALESQELCGTEVPSVPEHGRKDTVIKPLLVEPEGLEKETTFNSLLCPSGGEVSEELSLKLPPNVVEESARASVSVLGDILGSAMQNTQNLLQMPYGCGEQNMVLFAPNIYVLDYLNETQQLTPEIKSKAIGYLNTGYQRQLNYKHYDGSYSTFGERYGRNQGNTWLTAFVLKTFAQARAYIFIDEAHITQALIWLSQRQKDNGCFRSSGSLLNNAIKGGVEDEVTLSAYITIALLEIPLTVTHPVVRNALFCLESAWKTAQEGDHGSHVYTKALLAYAFALAGNQDKRKEVLKSLNEEAVKKDNSVHWERPQKPKAPVGHFYEPQAPSAEVEMTSYVLLAYLTAQPAPTSEDLTSATNIVKWITKQQNAQGGFSSTQDTVVALHALSKYGAATFTRTGKAAQVTIQSSGTFSSKFQVDNNNRLLLQQVSLPELPGEYSMKVTGEGCVYLQTSLKYNILPEKEEFPFALGVQTLPQTCDEPKAHTSFQISLSVSYTGSRSASNMAIVDVKMVSGFIPLKPTVKMLERSNHVSRTEVSSNHVLIYLDKVSNQTLSLFFTVLQDVPVRDLKPAIVKVYDYYETDEFAIAEYNAPCSKDLGNA
modifications: intact thiol ester between the cysteine and glutamine of the CGEQ motif; N-glycans; intersubunit Cys278/Cys431 disulfides in each disulfide-bridged dimer
notes: α2-macroglobulin, human, from plasma; original N-terminus at position 24; Homotetramer of 720 kDa, a dimer of disulfide-bridged dimers; In the cross-linking, SEC and native PAGE rows the protein carried DSSO cross-links; SAXS was also measured on deglycosylated A2M; also called native A2M; plasma A2M; source: purified from plasma from a healthy volunteer, never frozen
B2: Recombinant wild-type A2M (natural protein, human, UniProt P01023 24-1474, looked up)
chain: SVSGKPQYMVLVPSLLHTETTEKGCVLLSYLNETVTVSASLESVRGNRSLFTDLEAENDVLHCVAFAVPKSSSNEEVMFLTVQVKGPTQEFKKRTTVMVKNEDSLVFVQTDKSIYKPGQTVKFRVVSMDENFHPLNELIPLVYIQDPKGNRIAQWQSFQLEGGLKQFSFPLSSEPFQGSYKVVVQKKSGGRTEHPFTVEEFVLPKFEVQVTVPKIITILEEEMNVSVCGLYTYGKPVPGHVTVSICRKYSDASDCHGEDSQAFCEKFSGQLNSHGCFYQQVKTKVFQLKRKEYEMKLHTEAQIQEEGTVVELTGRQSSEITRTITKLSFVKVDSHFRQGIPFFGQVRLVDGKGVPIPNKVIFIRGNEANYYSNATTDEHGLVQFSINTTNVMGTSLTVRVNYKDRSPCYGYQWVSEEHEEAHHTAYLVFSPSKSFVHLEPMSHELPCGHTQTVQAHYILNGGTLLGLKKLSFYYLIMAKGGIVRTGTHGLLVKQEDMKGHFSISIPVKSDIAPVARLLIYAVLPTGDVIGDSAKYDVENCLANKVDLSFSPSQSLPASHAHLRVTAAPQSVCALRAVDQSVLLMKPDAELSASSVYNLLPEKDLTGFPGPLNDQDNEDCINRHNVYINGITYTPVSSTNEKDMYSFLEDMGLKAFTNSKIRKPKMCPQLQQYEMHGPEGLRVGFYESDVMGRGHARLVHVEEPHTETVRKYFPETWIWDLVVVNSAGVAEVGVTVPDTITEWKAGAFCLSEDAGLGISSTASLRAFQPFFVELTMPYSVIRGEAFTLKATVLNYLPKCIRVSVQLEASPAFLAVPVEKEQAPHCICANGRQTVSWAVTPKSLGNVNFTVSAEALESQELCGTEVPSVPEHGRKDTVIKPLLVEPEGLEKETTFNSLLCPSGGEVSEELSLKLPPNVVEESARASVSVLGDILGSAMQNTQNLLQMPYGCGEQNMVLFAPNIYVLDYLNETQQLTPEIKSKAIGYLNTGYQRQLNYKHYDGSYSTFGERYGRNQGNTWLTAFVLKTFAQARAYIFIDEAHITQALIWLSQRQKDNGCFRSSGSLLNNAIKGGVEDEVTLSAYITIALLEIPLTVTHPVVRNALFCLESAWKTAQEGDHGSHVYTKALLAYAFALAGNQDKRKEVLKSLNEEAVKKDNSVHWERPQKPKAPVGHFYEPQAPSAEVEMTSYVLLAYLTAQPAPTSEDLTSATNIVKWITKQQNAQGGFSSTQDTVVALHALSKYGAATFTRTGKAAQVTIQSSGTFSSKFQVDNNNRLLLQQVSLPELPGEYSMKVTGEGCVYLQTSLKYNILPEKEEFPFALGVQTLPQTCDEPKAHTSFQISLSVSYTGSRSASNMAIVDVKMVSGFIPLKPTVKMLERSNHVSRTEVSSNHVLIYLDKVSNQTLSLFFTVLQDVPVRDLKPAIVKVYDYYETDEFAIAEYNAPCSKDLGNA
notes: α2-macroglobulin, human, recombinant wild type; source: HEK293 Freestyle cells, transiently transfected, purified from the supernatant by the protocol used for plasma A2M
B3: A2M^3K, recombinant A2M with the Arg704Lys, Arg715Lys and Arg719Lys mutations (natural protein, human, UniProt P01023 24-1474, looked up)
chain: SVSGKPQYMVLVPSLLHTETTEKGCVLLSYLNETVTVSASLESVRGNRSLFTDLEAENDVLHCVAFAVPKSSSNEEVMFLTVQVKGPTQEFKKRTTVMVKNEDSLVFVQTDKSIYKPGQTVKFRVVSMDENFHPLNELIPLVYIQDPKGNRIAQWQSFQLEGGLKQFSFPLSSEPFQGSYKVVVQKKSGGRTEHPFTVEEFVLPKFEVQVTVPKIITILEEEMNVSVCGLYTYGKPVPGHVTVSICRKYSDASDCHGEDSQAFCEKFSGQLNSHGCFYQQVKTKVFQLKRKEYEMKLHTEAQIQEEGTVVELTGRQSSEITRTITKLSFVKVDSHFRQGIPFFGQVRLVDGKGVPIPNKVIFIRGNEANYYSNATTDEHGLVQFSINTTNVMGTSLTVRVNYKDRSPCYGYQWVSEEHEEAHHTAYLVFSPSKSFVHLEPMSHELPCGHTQTVQAHYILNGGTLLGLKKLSFYYLIMAKGGIVRTGTHGLLVKQEDMKGHFSISIPVKSDIAPVARLLIYAVLPTGDVIGDSAKYDVENCLANKVDLSFSPSQSLPASHAHLRVTAAPQSVCALRAVDQSVLLMKPDAELSASSVYNLLPEKDLTGFPGPLNDQDNEDCINRHNVYINGITYTPVSSTNEKDMYSFLEDMGLKAFTNSKIRKPKMCPQLQQYEMHGPEGLKVGFYESDVMGKGHAKLVHVEEPHTETVRKYFPETWIWDLVVVNSAGVAEVGVTVPDTITEWKAGAFCLSEDAGLGISSTASLRAFQPFFVELTMPYSVIRGEAFTLKATVLNYLPKCIRVSVQLEASPAFLAVPVEKEQAPHCICANGRQTVSWAVTPKSLGNVNFTVSAEALESQELCGTEVPSVPEHGRKDTVIKPLLVEPEGLEKETTFNSLLCPSGGEVSEELSLKLPPNVVEESARASVSVLGDILGSAMQNTQNLLQMPYGCGEQNMVLFAPNIYVLDYLNETQQLTPEIKSKAIGYLNTGYQRQLNYKHYDGSYSTFGERYGRNQGNTWLTAFVLKTFAQARAYIFIDEAHITQALIWLSQRQKDNGCFRSSGSLLNNAIKGGVEDEVTLSAYITIALLEIPLTVTHPVVRNALFCLESAWKTAQEGDHGSHVYTKALLAYAFALAGNQDKRKEVLKSLNEEAVKKDNSVHWERPQKPKAPVGHFYEPQAPSAEVEMTSYVLLAYLTAQPAPTSEDLTSATNIVKWITKQQNAQGGFSSTQDTVVALHALSKYGAATFTRTGKAAQVTIQSSGTFSSKFQVDNNNRLLLQQVSLPELPGEYSMKVTGEGCVYLQTSLKYNILPEKEEFPFALGVQTLPQTCDEPKAHTSFQISLSVSYTGSRSASNMAIVDVKMVSGFIPLKPTVKMLERSNHVSRTEVSSNHVLIYLDKVSNQTLSLFFTVLQDVPVRDLKPAIVKVYDYYETDEFAIAEYNAPCSKDLGNA
notes: α2-macroglobulin, human, recombinant; the three bait region arginines replaced with lysines; The protein is secreted into the culture supernatant; also called A2M^3K (R704K R715K R719K); source: HEK293 Freestyle cells, transiently transfected, purified from the supernatant by the protocol used for plasma A2M
B4: A2M^LNK/LNK, recombinant A2M with the Thr654Cys and Thr661Cys mutations (natural protein, human, UniProt P01023 24-1474, looked up)
chain: SVSGKPQYMVLVPSLLHTETTEKGCVLLSYLNETVTVSASLESVRGNRSLFTDLEAENDVLHCVAFAVPKSSSNEEVMFLTVQVKGPTQEFKKRTTVMVKNEDSLVFVQTDKSIYKPGQTVKFRVVSMDENFHPLNELIPLVYIQDPKGNRIAQWQSFQLEGGLKQFSFPLSSEPFQGSYKVVVQKKSGGRTEHPFTVEEFVLPKFEVQVTVPKIITILEEEMNVSVCGLYTYGKPVPGHVTVSICRKYSDASDCHGEDSQAFCEKFSGQLNSHGCFYQQVKTKVFQLKRKEYEMKLHTEAQIQEEGTVVELTGRQSSEITRTITKLSFVKVDSHFRQGIPFFGQVRLVDGKGVPIPNKVIFIRGNEANYYSNATTDEHGLVQFSINTTNVMGTSLTVRVNYKDRSPCYGYQWVSEEHEEAHHTAYLVFSPSKSFVHLEPMSHELPCGHTQTVQAHYILNGGTLLGLKKLSFYYLIMAKGGIVRTGTHGLLVKQEDMKGHFSISIPVKSDIAPVARLLIYAVLPTGDVIGDSAKYDVENCLANKVDLSFSPSQSLPASHAHLRVTAAPQSVCALRAVDQSVLLMKPDAELSASSVYNLLPEKDLTGFPGPLNDQDNEDCINRHNVYINGICYTPVSSCNEKDMYSFLEDMGLKAFTNSKIRKPKMCPQLQQYEMHGPEGLRVGFYESDVMGRGHARLVHVEEPHTETVRKYFPETWIWDLVVVNSAGVAEVGVTVPDTITEWKAGAFCLSEDAGLGISSTASLRAFQPFFVELTMPYSVIRGEAFTLKATVLNYLPKCIRVSVQLEASPAFLAVPVEKEQAPHCICANGRQTVSWAVTPKSLGNVNFTVSAEALESQELCGTEVPSVPEHGRKDTVIKPLLVEPEGLEKETTFNSLLCPSGGEVSEELSLKLPPNVVEESARASVSVLGDILGSAMQNTQNLLQMPYGCGEQNMVLFAPNIYVLDYLNETQQLTPEIKSKAIGYLNTGYQRQLNYKHYDGSYSTFGERYGRNQGNTWLTAFVLKTFAQARAYIFIDEAHITQALIWLSQRQKDNGCFRSSGSLLNNAIKGGVEDEVTLSAYITIALLEIPLTVTHPVVRNALFCLESAWKTAQEGDHGSHVYTKALLAYAFALAGNQDKRKEVLKSLNEEAVKKDNSVHWERPQKPKAPVGHFYEPQAPSAEVEMTSYVLLAYLTAQPAPTSEDLTSATNIVKWITKQQNAQGGFSSTQDTVVALHALSKYGAATFTRTGKAAQVTIQSSGTFSSKFQVDNNNRLLLQQVSLPELPGEYSMKVTGEGCVYLQTSLKYNILPEKEEFPFALGVQTLPQTCDEPKAHTSFQISLSVSYTGSRSASNMAIVDVKMVSGFIPLKPTVKMLERSNHVSRTEVSSNHVLIYLDKVSNQTLSLFFTVLQDVPVRDLKPAIVKVYDYYETDEFAIAEYNAPCSKDLGNA
modifications: intersubunit disulfide between Cys654 and Cys661 of opposite subunits
notes: α2-macroglobulin, human, recombinant; two cysteines introduced in the LNK region; The protein is secreted into the culture supernatant; also called A2M^LNK/LNK (T654C T661C); source: HEK293 Freestyle cells, transiently transfected, purified from the supernatant by the protocol used for plasma A2M

What was measured:
[1] = target: the molecule itself; assay: nonreducing SDS-PAGE; nonreducing SDS-PAGE on 5 to 15% gradient gels; shows disulfide-linked oligomers; DSSO-cross-linked A2M-MA defines the dimer and tetramer bands
[2] = target: the molecule itself; assay: negative stain electron microscopy; A2M at 78 μg/ml on carbon-coated copper grids, 2% w/v uranyl formate; 2D classes and 3D refinement with D2 symmetry imposed, 24 Å map
[3] = target: the molecule itself; assay: SEC; Sephacryl S-300 HR column in HBS, samples after DSSO cross-linking

Protein | stoichiometry N [1] | stoichiometry N [2] | stoichiometry N [3]
B1 | 2 | 4 | –
B2 | 2 | – | –
B3 | – | – | 4
B4 | 4 | – | –
